Laboratory results reported in patent US20170267768A1 (University of California, published 2017).

Assays:
[1] = target: Staphylococcus aureus Protein A (Staphylococcus aureus, UniProt P38507 37-477); experiment: Protein A binding measured as in Example 1; TS1C is the reference
Method: Protein A binding for multiple samples was determined as follows: scFvs expressed by mammalian cells were obtained from cultures by centrifugation at 4000 g for 15 minutes to remove cells. The scFv titer in the supernatant was determined using Fortebio. Protein A binding was assayed using a 96 well Protein A plate (Protein A 96 well protein purification plate (GE Healthcare: Life Sciences, Protein A HP MultiTrap®) which contains Protein A-conjugated resin in wells with porous bottoms, allowing liquid in the wells to be collected from underneath via centrifugation or suction. Each well of the plate was washed with 1×PBS, and supernatant containing 250 μg of protein was loaded into each well. The supernatant is then separated from the Protein A resin using a vacuum manifold (Whatman®) with 10 mbar of pressure and the flow-through from each well separately collected into empty wells of a standard 96 well plate. The wells of the Protein A plate were then washed with 600 μL of 1×PBS (pH 7.6). To elute the resin-bound Ab, 200 μL of 0.1M acetic acid was added to each well and incubated at room temperature for 3-10 minutes. […]
The fold improvement in Protein A binding capacity (as compared to TS1C) was measured as described in Example 1.

[2] = target: T1, His6-tagged recombinant human EphA2 protein (human, UniProt P29317 25-534); experiment: BLI (Octet Red 96); His6-EphA2 on anti-His sensors; slope of association curve of scFv-PEG-DSPE conjugate; TS1C printed as 100
T1 construct: also called his-tagged recombinant, human EphA2; human EphA2 with c-terminal His6
Source text: (§1) A nucleic acid encoding human EphA2 with c-terminal His6 appended was cloned into expression vector pCEP4 (Invitrogen® # V044-50) and transiently expressed in FreeStyle™ 293 cells (Invitrogen® #K900001) following polyethylenenimine transfection. The His6-tagged recombinant human EphA2 protein was purified from the cell culture medium using Ni-NTA Sepharose™ resin (Quiagen®, USA). Anti-His sensors for the fortéBIO® Octet Red 96 system (fortéBIO®-Pall® #18-5116) were coated with his-tagged recombinant, human EphA2 at concentration of 10 μg/ml protein for 300 sec, and a background run was carried out in PBS for 60 sec. For scFv-PEG-DSPE conjugates, the sensors were then incubated with 2.5 μg/ml (Study 1) or 4.0 μg/ml (Study 2) of the conjugate in PBS, pH 7.4, and the slopes of association curves were determined between 3-13 seconds of incubation, corrected for the buffer-only background, and compared across the variants. ScFv-linked liposomes were incubated with the sensors in PBS at 0.025 mM of liposome phospholipid, the slopes of the association curves were determined between 3-20 seconds of incubation, corrected for the buffer-only background, and compared across the variants.
(§2) Results are shown below in Table 6, in which column A gives scFv identifiers; column B indicates percent yield of scFv/lipopolymer linker conjugates; column C gives percent scFv-conjugate (not liposome-bound) EphA2 binding on-rate; column D gives percent scFv-conjugated-liposome EphA2 binding on-rate; and columns E (Study 1) and F (study 2) give percent antigen binding on-rate remaining in the scFv-conjugate (not liposome-bound) following thermal stress.

[3] = target: T1, His6-tagged recombinant human EphA2 …; experiment: BLI (Octet Red 96); His6-EphA2 on anti-His sensors; scFv-PEG-DSPE conjugate at 4.0 ug/ml after thermal stress
Source text: as §1, §2

[4] = target: T1, His6-tagged recombinant human EphA2 …; experiment: BLI (Octet Red 96); His6-EphA2 on anti-His sensors; scFv-PEG-DSPE conjugate at 2.5 ug/ml after thermal stress
Source text: as §1, §2

[5] = target: T1, His6-tagged recombinant human EphA2 …; experiment: BLI (Octet Red 96); His6-EphA2 on anti-His sensors; slope of association curve of scFv-linked liposomes at 0.025 mM phospholipid; TS1C printed as 100
Source text: as §1, §2

[6] = target: T2, human EphA2 on OVCAR-3 and U-251 cells (human, UniProt P29317 24-976); experiment: CLIA: scFv-decorated fluorescent NTA(Ni) liposomes on OVCAR-3 and U-251 cells, FACS
T2 construct: whole, on cells; also called EphA2 receptors
Method: To test the anti-EphA2 activity of these variant scFvs, the binding and internalization of liposomes externally decorated with these Abs was assayed on cell lines expressing EphA2. A rapid high-throughput Chelated Ligand-induced Internalization Assay (CLIA) (Nielsen et al., BMC immunology, 2006, 7:24) was used to screen anti-EphA2-scFv-targeted liposomes for binding and internalization assessment. Two cell lines that express high levels of EphA2 receptors, OVCAR-3 and U-251, were tested, as well as a murine EphA2-expressing mouse cell line, CT-26 (to test whether cross-reactivity to murine EphA2 was retained by the engineered scFvs). Via nickel-binding by each scFv's c-terminal His6 tag, the scFvs were bound to fluorescently labeled liposomes comprising an NTA(Ni) conjugated lipid (Dil5-NTA liposomes).
Dil5-NTA liposomes were prepared as follows. The NTA conjugated lipid, DOD-Tri-NTA, was synthesized as described in Huang et al., Bioconjugate chemistry, 2006, vol. 17, p. 1592-1600. […] The concentration of liposomal phospholipid was then determined after acid digestion using spectrophotometric phosphomolybdate method.

[7] = target: T3, murine EphA2 on CT-26 cells (mouse, UniProt Q03145 26-977); experiment: CLIA: scFv-decorated fluorescent NTA(Ni) liposomes on CT-26 cells, FACS
T3 construct: whole, on cells
Method: The concentration of liposomal phospholipid was then determined after acid digestion using spectrophotometric phosphomolybdate method. Prior to incubation with cells the liposomes were diluted to 0.4 mM phospholipid in Hank's Balanced Salt Solution (HBSS), and NiSO₄ was added to 0.1 mM. The hexahistidine scFvs were diluted into cell culture medium (see below) to the concentration of 25 μg/mL of scFv and mixed with equal volume of the liposome solution (“fluorescent NTA-liposome/scFv mixture”).
By measuring fluorescence of the cells prior to and after incubation/wash with imidazole, which disrupts His6/Ni complexes and thereby releases and removes external (but not internalized) histidine-tagged scFv, the percentage of Ab internalized is quantitated. The test cells (human cancer cell lines OVCAR-3 and U-251 and the murine cancer cell line CT-26) were grown in the adherent state in […] cell culture medium supplemented with 10% FBS, 1× penicillin/streptomycin, and L-glutamine, to 90% confluence and harvested using 0.25% trypsin-EDTA. […] The relative amounts of cell-associated liposomes were evaluated by FACS (Cy5 fluorescence channel). The “binding” amount included both cell surface-bound and internalized liposomes and was proportional to cell fluorescence without imidazole wash. […]

T1 sequence (P29317 25-534 limits assumed): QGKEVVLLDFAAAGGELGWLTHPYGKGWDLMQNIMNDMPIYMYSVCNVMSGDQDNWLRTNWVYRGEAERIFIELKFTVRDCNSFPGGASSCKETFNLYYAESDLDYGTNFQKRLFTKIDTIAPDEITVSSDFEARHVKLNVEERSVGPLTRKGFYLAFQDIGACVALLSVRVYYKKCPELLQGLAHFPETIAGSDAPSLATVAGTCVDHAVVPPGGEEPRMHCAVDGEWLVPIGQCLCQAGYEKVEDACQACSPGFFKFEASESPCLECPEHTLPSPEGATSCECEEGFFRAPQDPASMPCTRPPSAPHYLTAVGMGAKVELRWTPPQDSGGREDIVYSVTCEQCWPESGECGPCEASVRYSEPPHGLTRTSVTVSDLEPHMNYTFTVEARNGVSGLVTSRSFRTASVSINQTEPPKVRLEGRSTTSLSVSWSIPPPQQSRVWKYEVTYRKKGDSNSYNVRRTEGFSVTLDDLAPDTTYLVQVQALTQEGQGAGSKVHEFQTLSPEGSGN
T3 sequence (Q03145 26-977): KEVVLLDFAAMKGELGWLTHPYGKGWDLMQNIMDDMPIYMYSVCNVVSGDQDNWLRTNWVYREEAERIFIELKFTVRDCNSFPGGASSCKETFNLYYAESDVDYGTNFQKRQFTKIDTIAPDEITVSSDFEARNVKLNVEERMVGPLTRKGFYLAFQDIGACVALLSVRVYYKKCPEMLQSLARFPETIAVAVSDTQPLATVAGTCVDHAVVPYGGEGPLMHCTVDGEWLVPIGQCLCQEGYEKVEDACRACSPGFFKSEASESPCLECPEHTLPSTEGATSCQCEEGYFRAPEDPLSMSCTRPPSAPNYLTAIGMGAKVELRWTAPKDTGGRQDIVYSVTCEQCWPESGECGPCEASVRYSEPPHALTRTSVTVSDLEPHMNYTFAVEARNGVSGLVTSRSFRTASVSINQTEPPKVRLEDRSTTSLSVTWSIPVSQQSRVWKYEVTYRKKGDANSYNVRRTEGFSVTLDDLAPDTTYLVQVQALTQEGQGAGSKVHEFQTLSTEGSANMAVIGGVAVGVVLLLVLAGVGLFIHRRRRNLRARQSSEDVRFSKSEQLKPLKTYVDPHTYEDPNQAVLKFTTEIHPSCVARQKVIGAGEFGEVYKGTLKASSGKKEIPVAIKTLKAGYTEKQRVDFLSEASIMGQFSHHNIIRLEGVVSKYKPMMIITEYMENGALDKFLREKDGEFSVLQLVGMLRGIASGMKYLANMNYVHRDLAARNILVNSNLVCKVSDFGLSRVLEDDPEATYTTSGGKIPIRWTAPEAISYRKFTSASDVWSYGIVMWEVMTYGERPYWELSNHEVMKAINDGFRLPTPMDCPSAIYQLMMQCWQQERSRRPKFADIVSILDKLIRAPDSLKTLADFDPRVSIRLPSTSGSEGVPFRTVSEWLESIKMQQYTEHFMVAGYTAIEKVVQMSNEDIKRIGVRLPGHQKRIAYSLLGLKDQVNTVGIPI
T2 sequence (P29317 24-976): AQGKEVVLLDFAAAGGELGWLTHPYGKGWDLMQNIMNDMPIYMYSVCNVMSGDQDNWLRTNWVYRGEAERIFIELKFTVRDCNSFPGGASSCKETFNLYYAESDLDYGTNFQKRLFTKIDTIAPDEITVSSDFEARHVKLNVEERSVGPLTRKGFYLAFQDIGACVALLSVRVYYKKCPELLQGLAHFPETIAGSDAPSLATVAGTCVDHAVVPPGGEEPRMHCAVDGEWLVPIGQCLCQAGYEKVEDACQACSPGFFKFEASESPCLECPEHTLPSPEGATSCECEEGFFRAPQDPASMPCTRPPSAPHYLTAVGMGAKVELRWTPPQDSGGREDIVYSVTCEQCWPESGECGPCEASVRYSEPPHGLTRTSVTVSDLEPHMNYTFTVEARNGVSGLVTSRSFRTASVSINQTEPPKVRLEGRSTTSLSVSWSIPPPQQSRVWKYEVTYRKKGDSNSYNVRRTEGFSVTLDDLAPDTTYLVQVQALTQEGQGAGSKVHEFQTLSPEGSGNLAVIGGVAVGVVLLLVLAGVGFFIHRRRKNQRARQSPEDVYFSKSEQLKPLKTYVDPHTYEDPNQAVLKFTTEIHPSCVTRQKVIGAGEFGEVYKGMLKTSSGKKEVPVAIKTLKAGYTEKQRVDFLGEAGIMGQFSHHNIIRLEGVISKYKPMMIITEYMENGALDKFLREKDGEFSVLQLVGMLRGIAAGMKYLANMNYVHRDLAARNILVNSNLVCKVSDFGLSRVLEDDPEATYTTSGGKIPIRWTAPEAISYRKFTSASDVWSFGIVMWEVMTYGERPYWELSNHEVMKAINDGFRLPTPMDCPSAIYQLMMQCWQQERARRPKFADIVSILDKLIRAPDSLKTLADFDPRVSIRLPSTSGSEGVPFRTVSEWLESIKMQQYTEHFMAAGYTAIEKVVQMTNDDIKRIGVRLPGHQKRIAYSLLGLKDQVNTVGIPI

Binder | Fold Improvement in Protein A Binding Capacity [1] [fold] | percent scFv-conjugate (not liposome-bound) EphA2 binding on-rate [2] [%] | percent antigen binding on-rate remaining in the scFv-conjugate following thermal stress (Study 2) [3] [%] | percent antigen binding on-rate remaining in the scFv-conjugate following thermal stress (Study 1) [4] [%] | percent scFv-conjugated-liposome EphA2 binding on-rate [5] [%] | binding result [6] | binding result [7]
TS1C (scFv, also called parental clone TS1 (C form)) scFv: QVQLVQSGGGLVQPGGSLRLSCAASGFTFSSYAMHWVRQAPGKGLEWVAVISYDGSNKYYADSVKGRFTISRDNSKNTLYLQMNSLRAEDTAVYYCARASVGATGPFDIWGQGTLVTVSSASTGGGGSGGGGSGGGGSGGGGSSSELTQPPSVSVAPGQTVTITCQGDSLRSYYASWYQQKPGTAPKLLIYGENNRPSGVPDRFSGSSSGTSASLTITGAQAEDEADYYCNSRDSSGTHLTVFGGGTKLTVLGGGSGGC | 1 | 100 | 13 | 25.2 | 100 |  | 
scFv TS1 (scFv) scFv: QVQLVQSGGGLVQPGGSLRLSCAASGFTFSSYAMHWVRQAPGKGLEWVAVISYDGSNKYYADSVKGRFTISRDNSKNTLYLQMNSLRAEDTAVYYCARASVGATGPFDIWGQGTLVTVSSASTGGGGSGGGGSGGGGSGGGGSSSELTQPPSVSVAPGQTVTITCQGDSLRSYYASWYQQKPGTAPKLLIYGENNRPSGVPDRFSGSSSGTSASLTITGAQAEDEADYYCNSRDSSGTHLTVFGGGTKLTVLG |  |  |  |  |  | binds | binds
scFv-12 (scFv) scFv: QVQLVQSGGGLVQPGGSLRLSCAASGFTFSSYAMHWVRQAPGKGLEWVAGISHPGDNTYYADSVKGRFTISRDNSKNTLYLQMNSLRAEDTAVYYCARASVGATGPFDIWGQGTLVTVSSASTGGGGSGGGGSGGGGSGGGGSSSELTQPPSVSVAPGQTVTITCQGDSLRSYYASWYQQKPGTAPKLLIYGENNRPSGVPDRFSGSSSGTSASLTITGAQAEDEADYYCNSRDSSGTHLTVFGGGTKLTVLG |  |  |  |  |  |  | no binding
